This note sets out measurements from patent US10596234B2, “Compositions and methods to inhibit viral replication” (priority 2016, dated 2020).

Substitutions are numbered along the chain they refer to. Names may count otherwise.

One data set addresses T1, UL37C (571-1123) (Human herpesvirus 1, UniProt P10221).
T1 construct: bacterial purified UL37 (571-1123) was treated with N-methylacetamide; His; made in house; host or cells: E. coli BL21(DE3)
The experiment in a line: Cysteine labeling with electrophile and tandem mass spectrometry. The note with it: for C819 labeled by CNM: 45 minutes. The class given is biochemical, HSV-1. The protocol: […] Samples were then blocked with Iodoacetamide (Sigma) (50 mM) at room temperature for 1 h and subjected to Mass Spectrometry analysis (Poochon Scientific).

The subject of data set [1] is RIG-I. Nature of the data set: Two-dimensional gel electrophoresis of RIG-I deamidation in cells. It counts as cell-based, human. Conditions: 293T/RIG-I cells transfected with UL37, DON 10 μM. The protocol: Cells (1×10^6) were lysed in 150 μl rehydration buffer (8 M Urea, 2% CHAPS, 0.5% IPG Buffer, 0.002% bromophenol blue) by three pulses of sonication and whole cell lysates were centrifuged at 20,000 g for 15 min. Supernatants were loaded to IEF strips for focusing with a program comprising: 20 V, 10 h (rehydration); 100 V, 1 h; 500 V, 1 h; 1000 V, 1 h; 2000 V, 1 h; 4000 V, 1 h; 8000 V, 4 h. After IEF, strips were incubated with SDS equilibration buffer (50 mM Tris-HCl [pH8.8], 6 M urea, 30% glycerol, 2% SDS, 0.001% Bromophenol Blue) containing 10 mg/ml DTT for 15 min and then SDS equilibration buffer containing 2-iodoacetamide for 15 min. Strips were washed with SDS-PAGE buffer, resolved by SDS-PAGE, and analyzed by immunoblotting.

Data set [2] deals with RIG-I. The experiment in a line: In vitro ATPase activity assay. It counts as biochemical, human. The note with it: purified RIG-I proteins; for ATPase activity kcat: at physiological ATP concentrations; for ability to hydrolyze ATP: with or without 5′ppp-RNA. Here is the method: Purified RIG-I or RIG-I mutants were incubated with 5′-ppp-dsRNA (Invivogen) at 37° C. for 20 min in ATPase reaction buffer (50 mM Tris-HCl, pH 7.5, 2.5 mM MgCl2, and ATP. Released phosphates were measured using a PiColorLock™ phosphate detection reagent (Innova Biosciences). For reactions with varying concentrations of ATP, the concentrations of RIG-I proteins and RNA were 20 nM and 80 nM, respectively. For reactions with varying concentrations of the RNA, the concentrations of RIG-I proteins and ATP were 20 nM and 500 μM, respectively.
Purified RIG-I or RIG-I mutants were incubated with 5′-ppp-dsRNA (Invivogen) at 37° C. for 20 min in ATPase reaction buffer (50 mM Tris-HCl, pH 7.5, 2.5 mM MgCl2, and ATP). Released phosphates were measured using a PiColorLock™ phosphate detection reagent (Innova Biosciences). For reactions with varying concentrations of ATP, the concentrations of RIG-I proteins and RNA were 20 nM and 80 nM, respectively. For reactions with varying concentrations of the RNA, the concentrations of RIG-I proteins and ATP were 20 nM and 500 μM, respectively.

The subject of the next data set is HSV-1. Nature of the data set: HSV-1 plaque assay in HEK293 cells stably expressing RIG-I wild-type or mutants. The class given is cell-based. The note with it: HEK293 stable cells, HSV-1 MOI=0.5.
Data set [3] concerns 5′-triphosphate 19mer dsRNA. The experiment in a line: RNA electrophoresis mobility shift assay (EMSA). It counts as binding. Conditions: 32P-labeled 5′-triphosphate 19mer dsRNA. Here is the method: RNA EMSA was performed as previously described (Takahasi et al., 2008). 5′-ppp-dsRNA and control dsRNA were purchased from Invivogen and bottom strands were labeled with γ-[P^32]ATP by T4 polynucleotide kinase (NEB). Purified RIG-I and RIG-I mutants were incubated with dsRNA at room temperature for 15 min. Binding buffer contains 20 mM Tris-HCl (pH=8.0), 1.5 mM MgCl2 and 1.5 mM DTT. Unlabeled ppp-dsRNA was used as competitor at 500-fold in excess. The reaction mixtures were run on 5% native polyacrylamide gels at a constant voltage of 200 V. Gels were dried and subjected to phosphorimaging.
On the technique in general: A gel shift assay detects complexes by their altered migration in electrophoresis.

For the next data set, the system named is PRDIII promoter. Nature of the data set: Dual-luciferase reporter assay (PRDIII, SeV infection). The note with it: 293T cells, SeV 100 HAU/ml. It counts as cell-based, human. Here is the method: HEK293T cells, seeded in 24-well plates (˜50% cell density), were transfected with IFN-β, PRDIII (ISRE) or NF-κB reporter plasmid cocktail (50 ng of luciferase reporter plasmid and 5 ng of pRL Renilla luciferase control vector) and expression plasmid (empty plasmid, one or multiple plasmids depending on the experiment) by calcium phosphate precipitation. Cells were infected with SeV (100 HA/ml), HSV-1 for 16 h, transfected with Poly [I:C] for 16 h or directly harvested 30-36 h post transfection. Whole cell lysates were used to determine the activity of firefly luciferase and renilla luciferase by a microplate reader (FLUOstar Omega).
(Reporter assays use an easily measured gene product as a stand-in for the process of interest.)

On to `O=C(CCl)NCO` [CNM, 2-Chloro-N-(hydroxymethyl) acetamide], for which the results for the “C819 labeled by CNM” value at UL37C (571-1123) (CNM 1 μM) and at UL37C (571-1123) (CNM 10 μM) were 38.3% and 42.5%, respectively. Besides, the “C850 labeled by CNM” value at UL37C (571-1123) (CNM 1 and 10 μM) is on record as below 10%.

For `[N-]=[N+]=CC(=O)CC[C@H](N)C(=O)O` [DON, 6-diazo-5-oxo-L-norleucine, reference compound], in the data set with RIG-I [1], the “UL37-induced RIG-I deamidation in cells” value is listed as “inhibited RIG-I deamidation”.

B1: RIG-I-WT: wild-type RIG-I polypeptide, SEQ ID NO. 3 (protein, listed as Homo sapiens)
chain: MTTEQRRSLQAFQDYIRKTLDPTYILSYMAPWFREEEVQYIQAEKNNKGPMEAATLFLKFLLELQEEGWFRGFLDALDHAGYSGLYEAIESWDFKKIEKLEEYRLLLKRLQPEFKTRIIPTDIISDLSECLINQECEEILQICSTKGMMAGAEKLVECLLRSDKENWPKTLKLALEKERNKFSELWIVEKGIKDVETEDLEDKMETSDIQIFYQEDPECQNLSENSCPPSEVSDTNLYSPFKPRNYQLELALPAMKGKNTIICAPTGCGKTFVSLLICEHHLKKFPQGQKGKVVFFANQIPVYEQQKSVFSKYFERHGYRVTGISGATAENVPVEQIVENNDIIILTPQILVNNLKKGTIPSLSIFTLMIFDECHNTSKQHPYNMIMFNYLDQKLGGSSGPLPQVIGLTASVGVGDAKNTDEALDYICKLCASLDASVIATVKHNLEELEQVVYKPQKFFRKVESRISDKFKYIIAQLMRDTESLAKRICKDLENLSQIQNREFGTQKYEQWIVTVQKACMVFQMPDKDEESRICKALFLYTSHLRKYNDALIISEHARMKDALDYLKDFFSNVRAAGFEEIEQDLTQRFEEKLQELESVSRDPSNENPKLEDLCFILQEEYHLNPETITILFVKTRALVDALKNWIEGNPKLSFLKPGILTGRGKTNQNTGMTLPAQKCILDAFKASGDHNILIATSVADEGIDIAQCNLVILYEYVGNVIKMIQTRGRGRARGSKCFLLTSNAGVIEKEQINMYKEKMMNDSILRLQTWDEAVFREKILHIQTHEKFIRDSQEKPKPVPDKENKKLLCRKCKALACYTADVRVIEECHYTVLGDAFKECFVSRPHPKPKQFSSFEKRAKIFCARQNCSHDWGIHVKYKTFEIPVIKIESFVVEDIATGVQTLYSKWKDFHFEKIPFDPAEMSK
For the molecule B1, the ATPase activity kcat in the data set with RIG-I [2] was 944 s⁻¹. In addition, in the data set with HSV-1, the “reduction of HSV-1 replication / titer” value is given as around 50%.

B2: RIG-I-DD (protein)
chain: B1 chain with N495D, N549D
modifications: left off: small tags and cut ends
Take B2: in the data set with RIG-I [2], the ATPase activity kcat came out at 32.6 s⁻¹ and the “ability to hydrolyze ATP” value is given as “completely lost its ability to hydrolyze ATP”. In addition, the “RNA-binding (RIG-I:RNA complex formation)” value in data set [3] was “significantly impaired in forming the fast migrating RIG-I:RNA complex”. In the data set with HSV-1, the “reduction of HSV-1 replication / titer” value is reported as “marginal effect”.

B3: RIG-I-N549D (protein, UniProt O95786 1-925, looked up, variant N549D)
Antiviral innate immune …: B1 chain with N549D, E580D
On to B3, for which the “ability to hydrolyze ATP” value in the data set with RIG-I [2] is listed as “basal or no ATPase activity”.

B4: RIG-I-N495D (protein, UniProt O95786 1-925, looked up, variant N495D)
Antiviral innate immune …: B1 chain with N495D, E580D
As to B4, in the data set with RIG-I [2], the “ability to hydrolyze ATP” value is given as “basal or no ATPase activity”. Further, the “RNA-binding (RIG-I:RNA complex formation)” value in data set [3] is “comparable RNA-binding affinity to RIG-I-WT”.

B5: C850S (protein)
chain: MADRGLPSEAPVVTTSPAGPPSDGPMQRLLASLAGLRQPPTPTAETANGADDPAFLATAKLRAAMAAFLLSGTAIAPADARDCWRPLLEHLCALHRAHGLPETALLAENLPGLLVHRLVVALPEAPDQAFREMEVIKDTILAVTGSDTSHALDSAGLRTAAALGPVRVRQCAVEWIDRWQTVTKSCLAMSPRTSIEALGETSLKMAPVPLGQPSANLTTPAYSLLFPAPFVQEGLRFLALVSNRVTLFSAHLQRIDDATLTPLTRALFTLALVDEYLTTPERGAVVPPPLLAQFQHTVREIDPAIMIPPLEANKMVRSREEVRVSTALSRVSPRSACAPPGTLMARVRTDVAVFDPDVPFLSSSALAVFQPAVSSLLQLGEQPSAGAQQRLLALLQQTWTLIQNTNSPSVVINTLIDAGFTPSHCTHYLSALEGFLAAGVPARTPTGHGLGEVQQLFGCIALAGSNVFGLAREYGYYANYVKTFRRVQGASEHTHGRLCEAVGLSGGVLSQTLARIMGPAVPTEHLASLRRALVGEFETAERRFSSGQPSLLRETALIWIDVYGQTHWDITPTTPATPLSALLPVGQPSHAPSVHLAAATQIRFPALEGIHPNVLADPGFVPYVLALVVGDALRATCSAAYLPRPVEFALRVLAWARDFGLGYLPTVEGHRTKLGALITLLEPAARGGLGPTMQMADNIEQLLRELYVISRGAVEQLRPLVQLQPPPPPEVGTSLLLISMYALAARGVLQDLAERADPLIRQLEDAIVLLRLHMRTLSAFFECRFESDGRRLYAVVGDTPDRLGPWPPEAMGDAVSQYCSMYHDAKRALVASLASLRSVITETTAHLGVSDELAAQVSHEDNVLAVVRREIHGFLSVVSGIHARASKLLSGDQVPGFCFMGQFLARWRRLSACYQAARAAAGPEPVAEFVQELHDTWKGLQTERAVVVAPLVSSADQRAAAIREVMAHAPEDAPPQSPAADRVVLTSRRDLGAWGDYSLGPLGQTTAVPDSVDLSRQGLAVTLSMDWLLMNELLRVTDGVFRASAFRPLAGPESPRDLEVRDAGNSLPAPMPMDAQKPEAYGHGPRQADREGAPHSNTPVEDDEMIPEDTVAPPTDLPLTSYQ
On to B5, for which the “blockade of SeV-induced PRDIII promoter activation” value with PRDIII promoter is listed as “greatly impaired blockade of PRDIII induction by SeV”.
